Results from US20260043041A1, “HSL PROTEIN, GENE, VECTOR, CELL, COMPOSITION AND USE THEREOF, AND METHOD FOR IMPROVING HERBICIDE RESISTANCE OF CROPS” (CENTRAL CHINA NORMAL UNIVERSITY, priority 2022, published 2026).
Where a chain is given by its changes, count along the chain named. Names and notes keep the numbering of the source. “Also recorded” adds a separate entry of the source.

B1: OsHSL1_I335F: SEQ ID NO.1 with the isoleucine at site 335 mutated to phenylalanine (protein, listed as Oryza sativa)
chain: MADESWRTPAIVQELAAAGVEEPPSRYVLGEKDRSDELVAAELPEPIPVVDLSRLAGADEAAKLRAALQNWGFFLLTNHGVETSLMDDVLNLAREFFNQPIERKRKFSNLIDGKNFQVEGYGTDRVVTQDQILDWSDRLFLRVEPKEERNLAFWPDHPESFRDVLNEYASRTKRIRDDIVQAMSKLLGLDEDYFFDRLNKAPALARFNYYPPCPRPDLVFGVRPHSDGSLFTILLVDEDVGGLQIQRDGKWYNVQVTPNTLLINLGDTMEVLCNGIFRSPVHRVVTNAERERISLAMFYSVNDEKDIGPAAGLLDENRPARYRKVSVGEFRAGIFGKFSRRERYIDSLKI
B2: OsHSL1_F140H/L204F/F298L/I335A: SEQ ID NO.1 with F140 to histidine, L204 to phenylalanine, F298 to leucine, I335 to alanine (protein)
chain: B1 chain with F140H, L204F, F298L, F335A

Experiments:
[1] = target: T1, rice OsHSL1 (SEQ ID NO: 1) mutant OsHSL1_L204F/F298L/I335A (Oryza sativa, UniProt A0A7G1K9G4, F298L/I335A/L204F); assay: Enzyme kinetic parameters with HPPD inhibitors as substrate (HPLC); assay type: biochemical
T1 construct: isolated enzyme, HPLC assay; I335A may be a misprint of I335F
T1 sequence (A0A7G1K9G4 1-350 L204F/F298L/I335A): B1 chain with L204F, F298L, F335A
Source text: (§1) High Performance Liquid Chromatography (HPLC) was used to test OsHIS1 wild-type protein (the amino acid sequence of OsHIS1 wild-type is shown as SEQ ID NO 2, and the corresponding nucleotide sequence is shown as SEQ ID NO 21), the enzyme kinetic parameters of OsHSL1 wild-type protein and some OsHSL1 mutant proteins with higher reactivity and HPPD inhibitors, and the specific results are shown in Table 9-Table 12. […] Each sample was replicated three times. • e.

[2] = target: T2, rice OsHSL1 (SEQ ID NO: 1) mutant OsHSL1_F140H/L204F/F298L/I335A (Oryza sativa, UniProt A0A7G1K9G4, F140H/F298L/I335A/L204F); assay: as above; assay type: biochemical; conditions: compared with OsHSL1 wild type; close to the OsHIS1 wild type
T2 construct: isolated enzyme, HPLC assay
T2 sequence (A0A7G1K9G4 entry or part of it F140H/L204F/F298L/I335A): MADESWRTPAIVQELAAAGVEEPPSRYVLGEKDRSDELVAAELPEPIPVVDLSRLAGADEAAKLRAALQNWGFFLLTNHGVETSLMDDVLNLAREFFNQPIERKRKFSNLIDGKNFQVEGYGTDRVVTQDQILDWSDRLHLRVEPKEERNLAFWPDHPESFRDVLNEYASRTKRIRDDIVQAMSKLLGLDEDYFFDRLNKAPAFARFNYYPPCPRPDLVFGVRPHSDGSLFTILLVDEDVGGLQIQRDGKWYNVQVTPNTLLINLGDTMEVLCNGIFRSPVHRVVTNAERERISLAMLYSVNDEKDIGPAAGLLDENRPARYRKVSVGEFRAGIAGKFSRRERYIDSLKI
Source text: as §1

[3] = test system: OsHSL1 wild type T1 generation positive rice plants; assay: Herbicide resistance test, over-expression in rice (stem-leaf treatment); assay type: in vivo; conditions: 2 g/mu and 8 g/mu
Description: (§2) Successfully overexpressed OsHSL1_F140H/L204F/F298L/I335A mutants and OsHSL1 wild type TO generation tissue culture seedlings were selected, cultivated and harvested, and then sown to offspring population T1 generation rice plants, and positive over-expression rice plants were identified.
(§3) OsHSL1_F140H/L204F/F298L/I335A mutant T1 generation positive rice plants and OsHSL1 wild-type T1 generation positive rice plants at 3 weeks of seedling age were treated with different concentrations of methyl-benquitrione aqueous solution on the Stem leaves, and OsHSL1 wild-type T1 generation positive rice plants as a control. The resistance of mutant OsHSL1_F140H/L204F/F298L/I335A to methyl-benquitrione was tested, and the specific results were shown in FIG. 1.

[4] = test system: OsHSL1_F140H/L204F/F298L/I335A mutant T1 generation positive rice plants; assay: as above; assay type: in vivo; conditions: 2 g/mu and 8 g/mu, after 23 days of treatment
Description: as §2, §3

[5] = target: T3, rice OsHSL1 (SEQ ID NO: 1) mutant OsHSL1_I335F (Oryza sativa, UniProt A0A7G1K9G4, I335F); assay: Enzyme kinetic parameters with HPPD inhibitors as substrate (HPLC); assay type: biochemical; conditions: compared with OsHSL1 wild type
T3 construct: isolated enzyme, HPLC assay
Source text: as §1

[6] = Catalytic activity of HSL proteins on HPPD inhibitors (HPLC, substrate consumption); assay type: biochemical; conditions: 30° C., 10 h, protein 0.5 mg/mL; for Catalytic efficiency (%) Compound A: substrate Compound A 50 μM; for Catalytic efficiency (%) benzobicyclon technical: substrate benzobicyclon technical 50 μM; for Catalytic efficiency (%) Mesotrione: substrate mesotrione 50 μM; for Catalytic efficiency (%) methyl-benquitrione: substrate methyl-benquitrione 50 μM; for Catalytic efficiency (%) pyraquinate technical: substrate pyraquinate technical 50 μM; for Catalytic efficiency (%) tefuryltrione: substrate tefuryltrione 50 μM; for Catalytic efficiency (%) tembotrione: substrate tembotrione 50 μM
Description: (§4) Each sample was replicated three times. • e.
(§5) Control: refers to the addition of inhibitors to the reaction system, but not the addition of enzymes, which is regarded as the substrate surplus when the inhibitor is not catalyzed.
(§6) Sample: in the enzyme reaction system, the same volume and the same concentration (50 μM) of the inhibitor was added, and the catalytic efficiency of the enzyme to the inhibitor was observed.
(§7) Catalytic efficiency=(1−(peak area of substrate in sample)/(peak area of substrate in control))×100%.

[7] = assay type: biochemical; conditions: for Catalytic efficiency (%) topramezone: substrate topramezone 50 μM, 30° C., 10 h, protein 0.5 mg/mL
Description: as §4, §5, §6, §7

[8] = Enzyme kinetic parameter study (HPLC, Michaelis-Menten fit); assay type: biochemical; conditions: statement on Table 11
Source text: as §1

[9] = test system: T1 generation positive rice plants; assay: Herbicide resistance test of over-expression in rice (methyl-benquitrione stem-leaf treatment); assay type: in vivo; conditions: conclusion from FIG. 1
Description: as §2, §3
FIG. 1 is a graph showing the sensitivity of OsHSL1_F140H/L204F/F298L/I335A mutant T1 generation positive rice plants and OsHSL1 wild type T1 generation positive rice plants to the HPPD inhibitor methyl-benquitrione.

Molecule | Catalytic efficiency (%) Compound A [6] [%] | Catalytic efficiency (%) benzobicyclon technical [6] [%] | Catalytic efficiency (%) Mesotrione [6] [%] | Catalytic efficiency (%) methyl-benquitrione [6] [%] | Catalytic efficiency (%) pyraquinate technical [6] [%] | Catalytic efficiency (%) tefuryltrione [6] [%] | Catalytic efficiency (%) tembotrione [6] [%] | Catalytic efficiency (%) topramezone [7] [%] | other results
Cc1nn(C)c(O)c1C(=O)c1ccc2c(c1C)c(=O)n(-c1cccc(Cl)c1)c(=O)n2C [pyraquinate technical, pyraquinate] |  |  |  |  |  |  |  |  | affinity and catalytic efficiency (in words) ([1]; compared with OsHIS1 wild type and OsHSL1 wild type): superior; Kcat ([1]; pH 7.0, 30° C., about 20 min): 0.00135 s⁻¹
Cc1ccccc1-n1c(=O)c2c(C)c(C(=O)C3=C(O)CCCC3=O)ccc2n(C)c1=O [methyl-benquitrione] |  |  |  |  |  |  |  |  | affinity and catalytic efficiency (in words) [2]: better affinity and catalytic efficiency; albinism symptoms ([3]; after 16 days of treatment): almost all have albinism symptoms; albino symptoms ([3]; after 23 days of treatment): albino symptoms become very obvious; sensitivity (plant colour) [4]: basically keep normal green
Cc1c(C(=O)c2cnn(C)c2O)ccc(S(C)(=O)=O)c1C1=NOCC1 [topramezone] |  |  |  |  |  |  |  |  | catalytic efficiency (in words) [5]: obviously superior
B1 | 0 | 44 | 15 | 0 | 24 | 98 | 62 | 100 | degradation of topramezone (in words) [7]: can completely degrade topramezone; effect on topramezone degradation versus OsHSL1 wild type (in words) [7]: significantly better effect on topramezone degredation than OsHSL1 wild type; Catalytic efficiency (%) 30 min ([7]; topramezone degradation, reaction time 30 min): 97%; Catalytic efficiency (%) 60 min ([7]; topramezone degradation, reaction time 60 min): 100%; Catalytic efficiency (%) 120 min ([7]; topramezone degradation, reaction time 120 min): 100%; Catalytic efficiency (%) 300 min ([7]; topramezone degradation, reaction time 300 min): 100%; Catalytic efficiency (%) 600 min ([7]; topramezone degradation, reaction time 600 min): 100%; catalytic efficiency to topramezone versus wild type (in words) [8]: obviously superior to that of OsHSL1 wild type
B2 | 97 | 100 | 90 | 95 | 40 | 85 | 71 | 4 | resistance of over-expressing rice plants to methyl-benquitrione [9]: can improve the resistance; also recorded: obvious resistance
